# Values quoted from earlier work, collected in patent US5591427A, “Human Interleukin-3(Il-3) variants and their use to promote or antagonize IL-3-mediated processes” (Medvet Science Pty. Ltd., priority 1979, dated 1997).
# B1: Gly 33: literature hIL-3 variant in which Pro 33 was substituted with Gly (Lokker et al, 1991a) (protein, UniProt P08700 20-152, looked up, variant P33G)
# Interleukin-3: APMTQTTPLKTSWVNCSNMIDEIITHLKQPPLGLLDFNNLNGEDQDILMENNLRRPNLEAFNRAVKSLQNASAIESILKNLLPCLPLATAAPTRHPIHIKDGDWNEFRRKLTFYLKTLENAQAQQTTLSLAIF
# What was measured:
# M-07 cell line = conditions: E. coli expressed variants, literature; cited from earlier work
# IL-3 receptor = target: T1, IL-3 receptor (Homo sapiens, UniProt P26951+P32927); conditions: E. coli expressed variants, literature; cited from earlier work
# T1 sequence (P26951 19-378): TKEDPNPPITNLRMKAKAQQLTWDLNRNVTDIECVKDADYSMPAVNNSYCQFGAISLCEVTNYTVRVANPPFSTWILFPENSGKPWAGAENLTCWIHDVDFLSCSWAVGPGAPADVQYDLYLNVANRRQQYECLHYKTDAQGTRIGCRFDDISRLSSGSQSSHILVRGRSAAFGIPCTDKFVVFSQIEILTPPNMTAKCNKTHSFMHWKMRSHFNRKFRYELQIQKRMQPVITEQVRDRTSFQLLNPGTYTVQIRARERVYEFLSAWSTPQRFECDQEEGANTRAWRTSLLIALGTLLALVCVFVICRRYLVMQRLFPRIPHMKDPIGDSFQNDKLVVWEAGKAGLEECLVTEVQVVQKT
# T1 sequence (P32927 17-897): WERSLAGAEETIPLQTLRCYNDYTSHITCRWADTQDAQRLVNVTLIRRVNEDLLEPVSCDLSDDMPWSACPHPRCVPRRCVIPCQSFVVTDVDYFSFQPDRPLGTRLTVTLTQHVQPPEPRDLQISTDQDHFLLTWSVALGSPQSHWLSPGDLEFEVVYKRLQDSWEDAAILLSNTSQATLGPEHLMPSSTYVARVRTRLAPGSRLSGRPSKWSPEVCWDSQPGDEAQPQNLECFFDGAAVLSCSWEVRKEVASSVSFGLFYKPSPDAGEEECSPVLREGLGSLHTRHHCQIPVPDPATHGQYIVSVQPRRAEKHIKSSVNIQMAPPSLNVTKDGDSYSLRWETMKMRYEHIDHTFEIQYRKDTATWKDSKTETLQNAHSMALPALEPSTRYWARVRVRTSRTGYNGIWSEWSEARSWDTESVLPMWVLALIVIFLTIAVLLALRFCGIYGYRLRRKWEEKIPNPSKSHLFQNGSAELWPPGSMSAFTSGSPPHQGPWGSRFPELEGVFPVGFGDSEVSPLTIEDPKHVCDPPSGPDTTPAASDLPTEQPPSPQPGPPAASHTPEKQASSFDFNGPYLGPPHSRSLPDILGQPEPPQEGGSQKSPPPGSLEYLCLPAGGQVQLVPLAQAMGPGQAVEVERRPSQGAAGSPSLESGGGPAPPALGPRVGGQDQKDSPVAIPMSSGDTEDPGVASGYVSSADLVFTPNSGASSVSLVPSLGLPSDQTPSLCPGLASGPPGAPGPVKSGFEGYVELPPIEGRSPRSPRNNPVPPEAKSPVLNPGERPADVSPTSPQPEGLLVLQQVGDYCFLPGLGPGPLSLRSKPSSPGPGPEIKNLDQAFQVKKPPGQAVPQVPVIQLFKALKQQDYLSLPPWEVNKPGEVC
molecule,measurement,setting,value
B1,"proliferation activity, M-07 cells",M-07 cell line,enhanced proliferation activity
same,receptor binding capacity,IL-3 receptor,without a significant modification
